Reference: PMC12141448

Experiments:
[1] = target: PelB of P. aeruginosa PAO1, C-terminal fragment (residues 762-1193) with three periplasmic TPR repeats and the transmembrane β-barrel (Pseudomonas aeruginosa PAO1) (UniProt Q9HZE5); test: cryo-EM structure; PelBC complex in MSP1D1 nanodiscs (POPC:POPG 70:30), 50 mM HEPES pH 7.4, 150 mM NaCl; no symmetry imposed; 2.52 Å
[2] = target: PelC lipoprotein of P. aeruginosa PAO1 (Pseudomonas aeruginosa PAO1); test: as above

PelC lipoprotein of P. aeruginosa PAO1 (natural protein)
stoichiometry N (PelC per PelB) [1]: 12
stoichiometry N [2]: 12 subunits
